Experimental data from article PMC3667823.

Target: Recombinant HSP with AVI and HIS tag (16 kDa heat shock protein of Mycobacterium tuberculosis) (Mycobacterium tuberculosis) (UniProt P9WMK1)
Experiment: native MS

Work on “Recombinant HSP with AVI and HIS tag (16 kDa heat shock protein of Mycobacterium tuberculosis) (from UniProt P9WMK1 1-144) (natural protein)” yielded a stoichiometry N of 2.
